The values below come from the DeepSol protein solubility set.

The series can be described thus: soluble on expression in E. coli; label from the status in PepcDB or PDB records.
In the case of “MTAFEEFGIIPELSDALSSLNWTLPTAVQSEAIPAILGGADALIAAETGSGKTGAFSLPIAQIVWERRKSAEKSQNSGQKPENSREFQLNREDRDVSLQIDKTGLNCESRVAKEWHGARATAGLYGNGKYYYEVTVTRDGLCRVGWATLSGSLKIGTDFESFGYGGTGKKSFGKKFDDYGTSFTTNDVLGCFLDLDELKIWWSKNGVQFPVAYQIDKKFKTAATCLYPAILCQNSGLGVNFGGSAAFKYPPGTQYVAVAQAEDGNLKWWSAAEQLSIDSSTPLCVILEPTRELVQQTFQNIQTFASVLDSPKIRCVTLAAGENMNQILRTLETGCDIVVGTPSRVFDLIHTGKLATKNLQFVVIDEIDQFLAGKNNCAHQIESIFRVLPLVAQDGTRRQVIACSATLHNFEVCRFADRHMSFPQWIDLKGADCVSADVHHVVCHVDASEDKQWIRQMHQQVHLEDDHVHDGDQIRPGTTDKDTISLGTKILKGIYVVRAIHALQMDKAIVFCRTKQQCDHMEHFLQQNNLSAACLHGDRSAEERQSSLEGFKKGIIRFLVCSDVVARGLDVQGVPFVISVTLPDEKSMYVHRIGRVGRAERMGLSISLVSEYEEKAWYHKCRSRGVNCTNTKDISKGGCTIWLQEKKMLGEIEEHLGATISTVDSDFNVPVDEFDGKVVYGERRTGGANFDTHVLQLASSASQLADLETKMQLEYLNNNRHVFEIHSM”, the “soluble on expression in E. coli” value is “not soluble”. The entry for “MGGSHHHHHHGMASALDPAGGPRGVLPRPCRVLVLLNPRGGKGKALQLFRSHVQPLLAEAEISFTLMLTERRNHARELVRSEELGRWDALVVMSGDGLMHEVVNGLMERPDWETAIQKPLCSLPAGSGNALAASLNHYAGYEQVTNEDLLTNCTLLLCRRLLSPMNLLSLHTASGLRLFSVLSLAWGFIADVDLESEKYRRLGEMRFTLGTFLLLAALRTYRGRLAYLPVGRVGSKTPASPVVVQQGPVDAHLVPLEEPVPSHWTVVPDEDFVLVLALLHSHLGSEMFAAPMGRCAAGVMHLFYVRAGVSRAMLLRLFLAMEKGRHMEYECPYLVYVPVVAFRLEPKDGKGVFAVDGELMVSEAVQGQVHPNYFWMVSGCVEPPPSWKPQQMPPPEEPL” is “not soluble”; for “MMRSHVITHFSMPNIDLHSHSTISDGMLSPSRLLAHAAVRGVNVLALTDHDDIAGLSEASRSAQQENITLIRGVEISVTWHGRTLHILGLGINPEHPPLTEGLKKIRDGRMDRARAIAAQLDKFGIHGSFEGASAQAGISRLIGRTHFARFLVSQGYAKNVKSVFKKYLVKGKPGHVSHVWVSLDEAIGWIRGSGGQAVIAHPARYKLSNDLLEQLLCEFRELGGAGIEVVSSSHTPEQTRQFAALATRMNLYASCGSDYHGPGESYFDLGRLPALPPECTPIWNEWEIPDYAETGATTLNEQSEQTGLQSPGKSV” it is “not soluble”; for “MQVHSGETEILRKAVEDYFCFCYGKALGTTVMVPVPYEKMLRDQSAVVVQGLPEGVAFQHPENYDLATLKWILENKAGISFIINRPFLGPESQLGGPGMVTDAERSIVSPSESCGPINVKTEPMEDSGISLKAEAVSVKKESEDPNYYQYNMQGSHPSSTSNEVIEMELPMEDSTPLVPSEEPNEDPEAEVKIEGNTNSSSVTNSAAGVEDLNIVQVTVPDNEKERLSSIEKIKQLREQVNDLFSRKFGEAIGVDFPVKVPYRKITFNPGCVVIDGMPPGVVFKALGYLEISSMRRILEAAEFIKFTVIRPLPGLELSNVGKRKIDQEGRVFQEKWERAYFFVEVQNIPTCLICKQSMSVSKEYNLRRHYQTNHSKHYDQYTERMRDEKLHELKKGLRKYLLGSSDTECPEQKQVFANPSPTQKSPVQPVEDLAGNLWEKLREKIRSFVAYSIAIDEITDINNTTQLAIFIRGVDENFDVSEELLDTVPMTGTKSGNEIFLRVEKSLKKFCINWSRLVSVASTGTPAMVDANNGLVTKLKSRVATFCKGAELKSICCIIHPESLCAQKLKMDHVMDVVVKSVNWICSRGLNHSEFTTLLYELDSQYGSLLYYTEIKWLSRGLVLKRFFESLEEIDSFMSSRGKPLPQLSSIDWIRDLAFLVDMTMHLNALNISLQGHSQIVTQMYDLIRAFLAKLCLWETHLTRNNLAHFPTLKLVSRNESDGLNYIPKIAELKTEFQKRLSDFKLYESELTLFSSPFSTKIDSVHEELQMEVIDLQCNTVLKTKYDKVGIPEFYKYLWGSYPKYKHHCAKILSMFGSTYICEQLFSIMKLSKTKYCSQLKDSQWDSVLHIAT” it is “soluble”. With “MGHHHHHHSHMGNCCWTQCFGLLRKEAGRLQRVGGGGGSKYFRTCSRGEHLTIEFENLVESDEGESPGSSHRPLTEEEIVDLRERHYDSIAEKQKDLDKKIQKEQERQRIVQQYHPSNNGEYQSSGPEDDFESCLRNMKSQYEVFRSSRLSSDATVLTPNTESSCDLMTKTKSTSGNDDSTSLDLEWEDEEGMNRMLPMRERSKTEEDILRAALKYSNKETGSNPTSASDDSNGLEWENDFVSAEMDDNGNSEYSGFVNPVLELSDSGIRHSDTDQQTR”, the “soluble on expression in E. coli” value is “soluble”. Take “MSLTNPAPIEAPLPKGVTDFLPEKADKIGYIEGKIRRVFELWGFRRIITPLLEFQDVMAAGLGEDLKERTFRFDDRQTGKLLAIPSDITPQVARIVATRMRGCPLPHRLYYIGRVLRHVELQSGRSRETFQAGVELIGLDSPEADAEMVAMAVEILKGLGFEEFKVDLGHTGFIRGVMAASGLGGDARRRLQEAVGKKDSSAVRAILETEPVADRIKEELAALPRLFGGREVLAEAARVATSDSSRRALDNIAQVLDILDIHGVSDHLTLDLGEIRGLDYHSGLTFEGFVTGIGEAVCSGGRYDNLTQRYGYPAPATGFAFNILALLNALEKRPDVEASKTRDLLIFNLKDDRREALEIAQHLRALGYSTARDIIHRDFNDSLDYARRMNILRMMVIGGDYCAADEAYVVRVADKRGTAVKKADLMRNDFSLNTEGHHHHHH”: the “soluble on expression in E. coli” value is “soluble”. On to “MEAVGADESYDGQQLYMMLVGHSRMADADRTAILGGTFTPIHNGHRALLHKAFQTASHDGSGDGHVIVGLTSPELATETRSDPTHVKQLGAYDDRRSALASELDQLGEPYTATYEIVRLDDTQGPAATRADVDALVASPEAKAQRRAYELNQQRRESGLHPLEIHTPPFVVAEDGTRISSTRIRNGEIDVHGRLLDASE”, for which the “soluble on expression in E. coli” value was “not soluble”. For “AHHHHHHGSKVYYPGREWPEEYKRVLEKMKEIIDPVTGDNILDSGVVAGLEVKDRTLKVWLRFESQAEYNILGGAAMAYSKIVGDIMEKFALVMFDNVYVYDLRNNIVGVFEKKK”, the “soluble on expression in E. coli” value was “not soluble”.

For the sequence “MLSRAGKHRQLPSLRASQAEASPICSELEDKHKNVQEPDGISNHFLQEKKFAGSESKEYKRKDVVLYREKLLAPEVTNLVSREQMMMHPRDQYLHVLSPYCYSAIEVSHAVFSIFAYIVCDVNWSREYCSKHTTCKQDFKTMIIAVMREYLSMGEAADISRLPRAAMFNLQQAGQLATPTASGTQRRAEPETYVDLHALSDKINHLKTHCNYQIRRDRAFPPMVNLFEIEPRVPVKMSYFLAECKTYGIHQCLHPVSATVKQIDQAFLPAWKARVLFMLGWMDNFFDEDMDDLKRCIRKAINFKVPLKTWESEEDLMVVILEQNQAKLKLARECLTTISKCEHADPHDWLHCNRKRRERHFIVCEYKNPGIWHSSEILKISLKILRQCMGHATLDLKEVNVKSENKIGSDASPDVPLDKKKLKRQKQKLRKAAEPPEPTPPPPPPVIPVPEAKPCEKCFRTSERCNKANAELKTSLNKIKILEKKLSAEKRAFKENQETWEKKLEELQTELQAKERTIQEFQDKVAPKCAESVSDGFLRDGEELIATFDVTSSNATEEFESECIICREDIDLENGTVQCPRCTEIYHSHCATQWLSQKPTCPKCIFHIGHINEFPSLV”, the “soluble on expression in E. coli” value was “not soluble”. The entry for “MEDLDAYRAACANRIRRLERYKKARSFCSLETDEPTSSSPSLSSNSDVSQENGSSTFDMIREKMFSLMENDMTLLKQLLQLGDQISEIKKERLRRTMSQNSLEYDEEDEKEDKFDSGFSASMSAVTNLYVDDERPQFFSRQNSVLRIPIPPRSSNRFGPRRVIRRPSDILPRQQTNNIRTLHVNSDDSDSSSSGSKTHSPSSSVYNASTLILPSKTTKNRSSNSSIDSGIRDEQLTPSPTFESVVI” is “not soluble”.

Turning to “MKNETLHTQEDIIKMLDSLLRPAEPFWNEFYANREKDVPFFENVPDENLVSYIQKKRVSKGKVLELGCGPGRNAIYLANEGFDVTAVDVSIEGINWAKERALAKGVEIEFICDSIFNLEVQNEFDFVYDSGCLHHIPPHRRVNYVDLIKNALKSGGYFGLTCFAAGDLDERNGSEITDWDVYRGWSLQGGLAYSEEKLREIFKGFEVIEIRKMEQIEQPNTMFGESFLWTALFKKNLEHHHHHH”, the “soluble on expression in E. coli” value was “soluble”. In the case of “MGSDKIHHHHHHMTAEVAIINRSGIALAADSAVTIGRDRVWKNSNKLFHLAPSNDVAVMVFGSGDYCGLPWEVVIKEFRKSLGKTTYSRVEEYVGRFLGFLDDLVVPPTPLADLTGWYIILNAISQTQKAMTASGSLKRRQQLIAAISEKIEEADHYPLLFDGYSRDQYRKKHSQKIKEFMAEELGMHVTQTMHSKMITLCYERSRRAFETKFETGVVFAGYGDSELLPVVIEMCVDGELEGKVRAWQVRENNMNEGGTSGAILPFAQADVANLFVEGTLPQYLSYTRQTLLQTLDLKTAELVKDYVPEPDRVVEMERQKKANRAMVKQFSTDFKQYRHDESVANLLKVVNSLPKEEMAAMAEALVEITSLRRKMDSSLETVGGPVDVAIISKSDGFVWTKRKHYFDVEFNRDFMERRNQRYQGNQDA”, the “soluble on expression in E. coli” value is given as “not soluble”. In the case of “MTARYIAIDWGSTNLRAWLYQGDHCLESRQSEAGVTRLNGKSPAAVLAEVTTDWREENTPVVMAGMVGSNVGWKVAPYLSVPARFSSIGEQLTSVGDNIWIIPGLCVSHDDNHNVMRGEETQLIGARALAPSSLYVMPGTHCKWVQADSQQINDFRTVMTGELHHLLLNHSLIGAGLPPQENSADAFAAGLERGLNAPAILPQLFEVRASHVLGTLPREQVSEFLSGLLIGAEVASMRDYVTHQHAITLVAGTSLTARYQQAFQAMGCDVAAVAGDTAFQAGIRSIAHAVAN” it was “soluble”; in that of “MVSLTMVPIDALLSKEVNAFIVQHKHASVAELMLRMPVFTVDSRWIAAQIEGWQKASQKLPLWASTENIIYPIRLSMEQCSSERTAHYKSTLMSGERLVDLTGGFGVDSFYLSKSFNEVIYIEQQEDLAEIAAHNFSTLNQNNIVVKTADSDEYLKDIAEKIDVIFLDPARRKEMRKVYKLSDCEPNVVALQSFYFSKADVILIKTSPMLDITEATRQLTGIKEIHVVSVDNECKEVLYLLEKNYSGKATYICAHDYKKQLQLFSFTIAAEQAVTLSYSAPLAYLYEPNPSILKAGGFNSITQKYEVFKLHASSHLYTSASEVSDFPGRTFKIKETVGYSKKDIQAAVPGGKANIQTRNFPDSVEAIRKKTGLKDGGNIFIFATTLHDLSKVLLICEKI”, “not soluble”. The entry for “MSLRKNIFFIVFIILCAVSCTEKKSNFINTVHLKGQLLDMGSQNVRMRFDGAASMLGDSRDILLKTDAAGYFDTTFVLKEPTYYTISRNTLYLTPGDDMTIKVTQTNTEAEFSGIGAEANNYMKFRLFPKGGSYLEAGGNLRGDFVSTKALVDSLAAIRMHTLDTLSNVSDAFKKLETARIKADIINSYICYASYSRMFAEVKNEEEMRAKWNEFNVSLTQDVTPLYKEIVNEDMLNVAVVRDVLSYQEDSTLASLWFKDISIPARTTELYACAKIVDNLRNEASEQTVNEAKAFLQTVKNADFATEIEGKIVQASKLLPGQPAIDFEMLDVEGNVKHLADFKGKVIYIDLWATWCGPCIQESPAFEALGKKYVGKDIVFLPVSTDTTTKPWLRYLDGHKKELTQYHSNDVALKESWAIMYIPRFILIDKDFNIVNAYAPRPSSEEIGTLIDSVLNKEGHHHHHH” is “soluble”.
